The values that follow come from patent US20230167431.

For the series, the system named is CCR5-targeting megaTAL (CCR5MT) expressed as a CCR5MT-tEGFR fusion (Artificial sequence). Kind of series: cell_activity. Particulars: tEGFR-sorted primary human CD4 T cells, donor 1; estimated InDels 58.76%; donor 2 73.54% cleaved; untreated 0%; SEQ:6 assigned to the megaTAL by inference from ….

As for CCR5 gene megaTAL target site, the activity (% cleaved DNA (T7E1)) is 83.
